We go through 1 molecule from patent US20240206509A1 (CLARA FOODS, published 2024).

The test concerns the target bovine trypsin (bovine, UniProt P00760 24-246). In words: cell-based or functional assay.

Chain of bovine trypsin (P00760 24-246): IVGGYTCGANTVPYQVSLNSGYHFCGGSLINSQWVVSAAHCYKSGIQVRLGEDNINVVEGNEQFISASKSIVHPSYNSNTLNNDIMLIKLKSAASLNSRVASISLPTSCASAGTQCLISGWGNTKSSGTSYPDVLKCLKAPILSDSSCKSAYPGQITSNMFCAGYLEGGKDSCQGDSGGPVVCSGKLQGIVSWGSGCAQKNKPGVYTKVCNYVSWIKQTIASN

B1: native chicken ovomucoid (nOVD) (other)
chain: AEVDCSRFPNATDKEGKDVLVCNKDLRPICGTDGVTYTNDCLLCAYSIEFGTNISKEHDGECKETVPMNCSSYANTTSEDGKVMVLCNRAFNPVCGTDGVTYDNECLLCAHKVEQGASVDKRHDGGCRKELAAVSVDCSEYPKPDCTAEDRPLCGSDNKTYGNKCNFCNAVVESNGTLTLSHFGKC
modifications: complex branched N-linked glycosylation (that includes mannose), as in chicken egg white
The molecule B1 registered a Trypsin inhibition activity of 13700 TIU/g.
